For test [1], the target named is T1, human TREM2 (human, UniProt Q9NZC2 19-174, limits assumed).
T1 construct: also called triggering receptor expressed on myeloid cells 2
T1 sequence: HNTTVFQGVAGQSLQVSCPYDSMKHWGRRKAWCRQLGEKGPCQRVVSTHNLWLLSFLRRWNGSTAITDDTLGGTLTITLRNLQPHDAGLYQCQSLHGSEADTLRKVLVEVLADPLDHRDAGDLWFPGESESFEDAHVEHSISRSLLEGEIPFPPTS
The test is described as follows: 1st screen (110 nM or 10 nM).

Test [2] concerns the target T1, human TREM2. As to the kind of experiment: 2nd screen, printed under 10 nM.
The target in test [3] is T1, human TREM2. As to the kind of experiment: 2nd screen 2 nM.
For test [4], the target named is T1, human TREM2. As to the kind of experiment: 2nd screen 10 nM.

B1: V31 (antibody, V domains shown)
VH: EVQLVQSGAEVKKPGESLKISCKGSGYSFTSYWIAWVRQMPGKGLEWMGIIYPGDSETRYSPSFQGQVTISADKSISTAYLQWSSLKASDTAMYFCARQRTFYYDSSDYFDYWGQGTLVTVSS
VL: DIQMTQSPSSVSASVGDRVTITCRASQGISSWLAWYQQKPGKAPKLLIYAASSLQNGVPSRFSGSGSGTDFTLTISSLQPEDFATYFCQQADSFPRTFGQGTKLEIK
For B1, the entries for the “Binding Signal (fold over 6E7 Parental antibody)” value in the test with human TREM2 [1] and in the test with human TREM2 [2] were 0.61 fold and 0.73 fold, respectively.

B2: V88 (antibody, V domains shown)
VH: EVQLVQSGAEVKKPGESLKISCKGSGYSFGSYWIAWVRQMPGKGLEWMGIIYPGDSDTRYSPSFQGQVTISADKSISTAYLQWSSLKASDTAMYFCARQRTFYYDSSDYFDYWGQGTLVTVSS
VL: DIQMTQSPSSVSASVGDRVTITCRASQGISSWLAWYQQKPGKAPKLLIYAASRLQRGVPSRFSGSGSGTDFTLTISSLQPEDFATYFCQQADSSPRTFGQGTKLEIK
For B2, the “Binding Signal (fold over 6E7 Parental antibody)” value in the test with human TREM2 [3] came out at 5.57 fold; with human TREM2 [4] it was 5.3 fold; with human TREM2 [1] it was 4.92 fold.

B3: V89 (antibody, V domains shown)
VH: EVQLVQSGAEVKKPGESLKISCKGSGYSFTSYWIAWVRQMPGKGLEWMGIIYPGDSDTRYSPSFQGQVTISADKSISTAYLQWSSLKASDTAMYFCARQRTFYYDSSDYFDYWGQGTLVTVSS
VL: DIQMTQSPSSVSASVGDRVTITCRASQGISSWLAWYQQKPGKAPKLLIYAASSLQNGVPSRFSGSGSGTDFTLTISSLQPEDFATYFCQQADSHPRTFGQGTKLEIK
In the case of B3, the “Binding Signal (fold over 6E7 Parental antibody)” value in the test with human TREM2 [3] was 0.94 fold; in the test with human TREM2 [4] it was 1.46 fold; in the test with human TREM2 [1] it was 1.33 fold.

B4: V77 (antibody, V domains shown)
VH: EVQLVQSGAEVKKPGESLKISCKGSGYSFTSYWIAWVRQMPGKGLEWMGIIYPGDSDTRYSPSFQGQVTISADKSISTAYLQWSSLKASDTAMYFCARQRTFYYDSSDYFDYWGQGTLVTVSS
VL: DIQMTQSPSSVSASVGDRVTITCRASQGISSWLAWYQQKPGKAPKLLIYAASSRQNGVPSRFSGSGSGTDFTLTISSLQPEDFATYFCQQADSFPRTFGQGTKLEIK
As to B4, the figures for the “Binding Signal (fold over 6E7 Parental antibody)” value with human TREM2 [3], with human TREM2 [4] and in the test with human TREM2 [1] were 0.83 fold, 1.38 fold and 1.43 fold, respectively.

B5: V85 (antibody, V domains shown)
VH: EVQLVQSGAEVKKPGESLKISCKGSGYSFRSYWIAWVRQMPGKGLEWMGTIYPGDSDTRYSPSFQGQVTISADKSISTAYLQWSSLKASDTAMYFCARSRTFYYDSSDYFDYWGQGTLVTVSS
VL: DIQMTQSPSSVSASVGDRVTITCRASQGISSWLAWYQQKPGKAPKLLIYAASSRQNGVPSRFSGSGSGTDFTLTISSLQPEDFATYFCQQADSFPRTFGQGTKLEIK
As to B5, the “Binding Signal (fold over 6E7 Parental antibody)” value turned out to be 5.41 fold in the test with human TREM2 [3], 5.37 fold with human TREM2 [4] and 5.41 fold with human TREM2 [1].

B6: V84 (antibody, V domains shown)
VH: EVQLVQSGAEVKKPGESLKISCKGSGYGFTSYWIAWVRQMPGKGLEWMGIIYPGDSDTRYSPSFQGQVTISADKSISTAYLQWSSLKASDTAMYFCARQRTFYYDSSDYSDYWGQGTLVTVSS
VL: DIQMTQSPSSVSASVGDRVTITCRASQGISSWLAWYQQKPGKAPKLLIYGASSLQNGVPSRFSGSGSGTDFTLTISSLQPEDFATYFCQQADSFPRTFGQGTKLEIK
Regarding B6, the “Binding Signal (fold over 6E7 Parental antibody)” value in the test with human TREM2 [3] was 1.45 fold; with human TREM2 [4] it was 1.62 fold; in the test with human TREM2 [1], 1.44 fold.

B7: V87 (antibody, V domains shown)
VH: EVQLVQSGAEVKKPGESLKISCKGSGYSFRSYWIAWVRQMPGKGLEWMGIIYPGDSDVRYSPDFQGQVTISADKSISTAYLQWSSLKASDTAMYFCARSRTFYYDSSDYFDYWGQGTLVTVSS
VL: DIQMTQSPSSVSASVGDRVTITCRASQGISSWLAWYQQKPGKAPKLLIYAASSLQWGVPSRFSGSGSGTDFTLTISSLQPEDFATYFCQQADSFPRTFGQGTKLEIK
B7: the “Binding Signal (fold over 6E7 Parental antibody)” value was 4.86 fold in the test with human TREM2 [3], 3.93 fold with human TREM2 [4] and 3.84 fold in the test with human TREM2 [1].

B8: V86 (antibody, V domains shown)
VH: EVQLVQSGAEVKKPGESLKISCKGSGYSFGSYWLAWVRQMPGKGLEWMGIIYPGDSDTRYSPSFEGQVTISADKSISTAYLQWSSLKASDTAMYFCARSRTFYYDSSDYFDYWGQGTLVTVSS
VL: DIQMTQSPSSVSASVGDRVTITCRASQGISSWLAWYQQKPGKAPKLLIYAASSRQNGVPSRFSGSGSGTDFTLTISSLQPEDFATYFCQQADSFPRTFGQGTKLEIK
For B8, the results for the “Binding Signal (fold over 6E7 Parental antibody)” value in the test with human TREM2 [3], with human TREM2 [4] and in the test with human TREM2 [1] were 5.17 fold, 5.02 fold and 4.8 fold, respectively.

The values are drawn from US20250282866A1 (VIGIL NEUROSCIENCE, published 2025).
